# In article PMC6443839:
# Molecular target: amyloid-β protein (Aβ) produced from human APP770 bearing the Swedish mutation (APPswe) in rat hippocampal neurons (human)
# Test: SDS-PAGE with western blot
substance,measurement,value
amyloid-β protein (Aβ) produced from human APP770 bearing the Swedish mutation (APPswe) in rat hippocampal neurons (peptide),stoichiometry N,3
